Legend:
RON Sema-PSI-AFH protein [1] = biological target: T1, RON Sema-PSI-AFH protein (human, UniProt Q04912 25-568); experiment: SPR (Biacore T100); antibody captured by immobilized anti-mouse Fc, soluble RON Sema-PSI-AFH flowed over
T1 construct: Produced in CHOK1SV cells; also called soluble RON Sema-PSI-AFH; not shown: c-terminal tag including avidin, 3xFLAG and 6x histidine tags
T1 chain: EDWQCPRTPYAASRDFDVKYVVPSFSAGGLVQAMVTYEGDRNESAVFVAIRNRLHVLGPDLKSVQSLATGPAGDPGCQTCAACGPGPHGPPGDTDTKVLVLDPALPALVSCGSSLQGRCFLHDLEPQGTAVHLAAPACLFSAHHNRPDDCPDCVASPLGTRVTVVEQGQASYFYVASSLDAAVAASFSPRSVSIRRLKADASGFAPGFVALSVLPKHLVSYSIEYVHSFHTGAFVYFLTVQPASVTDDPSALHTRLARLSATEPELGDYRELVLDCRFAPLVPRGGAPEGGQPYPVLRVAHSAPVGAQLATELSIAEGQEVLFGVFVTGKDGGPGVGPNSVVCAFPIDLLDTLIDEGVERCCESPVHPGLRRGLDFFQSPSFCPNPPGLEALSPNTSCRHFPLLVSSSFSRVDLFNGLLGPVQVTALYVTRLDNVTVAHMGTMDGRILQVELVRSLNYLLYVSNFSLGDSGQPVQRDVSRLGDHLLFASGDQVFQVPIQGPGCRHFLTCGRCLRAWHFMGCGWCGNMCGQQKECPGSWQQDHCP
Experimental: (§1) The binding kinetics of RON-f murine antibody, SMIP and Interceptor to soluble RON Sema-PSI-AFH were determined using a Biacore T100 (GE Healthcare, Piscataway, N.J.). Anti-RON murine antibody was captured using immobilized anti-mouse Fc polyclonal antibody while the SMIP and Interceptor were captured by anti-human Fc monoclonal antibody. The capture antibodies, both from GE Healthcare, were covalently conjugated to a carboxylmethyl dextran surface (CM4) via amines using N-ethyl-N′-(3-dimethylaminopropyl)-carbodiimide hydrochloride and N-hydroxysuccinimide. The unoccupied sites of the activated surface were blocked by ethanolamine. […] During each cycle, a single concentration of soluble RON Sema-PSI-AFH was injected and then allowed to dissociate. At the end of each cycle, the surface was regenerated gently using 3M MgCl₂ which dissociates protein bound to the capture antibodies. Signal associated with binding to the reference cell was used to subtract for bulk refractive changes and blank (buffer-only) injections were used to correct for drift and system noise.
(§2) Kinetic parameters and affinities were determined using BIAevaluation software. The kₐ (M⁻¹s⁻¹) and kd (s⁻¹) rates of the interaction were used to calculate the affinity constant, KD (M), of the antibody/receptor interaction. The KD is defined as the ratio of the kd and kₐ constants (kd/kₐ). The RON-f01 murine antibody was tested in a single experiment while the RON-f02 SMIP and RON-f03 Interceptor molecules were each tested in three independent experiments. RON-f molecules were captured on a sensor chip with immobilized anti-Fc while soluble RON Sema-PSI-AFH protein was flowed over the surface at varying concentrations.

[2] = biological target: T2, human RON (recepteur d'origine Nantaise, MST1R), full length on cells (human, UniProt Q04912 25-1400); experiment: flow cytometry, NIH/3T3 cells transfected with human RON, hybridoma supernatant
T2 construct: Over-expressed on transfected NIH/3T3 cells, or native on BxPC-3 and MDA-MB-453 cells; also called native human RON
Source text: NIH/3T3 cells transfected with human or macaque RON or empty vector, were dissociated with trypsin and stained at 1.6×10⁵ cells/sample on ice with hybridoma supernatants or purified antibodies diluted in Staining Buffer (2% FBS in Dulbecco's PBS). Unlabeled murine IgG (SouthernBiotech, Birmingham, Ala.) and the DX07 anti-RON β-chain antibody (Santa Cruz Biotechnology, Santa Cruz, Calif.) were employed as negative and positive controls respectively. Murine antibodies were detected with R-PE-conjugated goat anti-mouse IgG (SouthernBiotech). Samples were analyzed on a BD FACSCalibur flow cytometer fitted with an HTS using PlateManager and CellQuest Pro software (BD Biosciences, San Jose, Calif.). Data was plotted using FlowJo software (Tree Star, Ashland, Oreg.).
NIH/3T3 cells transfected with empty vector (dashed), human RON (dotted) or Macaca mulatta RON (solid) were stained with secondary antibody alone (FIG. 1A), 1 mg/ml murine IgG (FIG. 1B), 1 mg/ml DX07 anti-RON antibody (FIG. 1C), RON-e01 anti-RON hybridoma supernatant (FIG. 1D) or RON-f01 anti-RON hybridoma supernatant (FIG. 1E).

[3] = biological target: T3, recombinant RON Sema-PSI protein (R&D Systems #1947-MS) (human, UniProt Q04912 25-571); experiment: ELISA, plate coated with 1 µg/ml recombinant RON Sema-PSI, hybridoma supernatants
T3 construct: Bought protein, expressed in NS0 cells; not shown: carboxyl-terminal histidine tag
Experimental: (§3) To determine binding of murine antibodies to the Sema-PSI domain of RON, 96-well EIA/RIA microplates were coated with 1 μg/ml recombinant RON Sema-PSI (R&D Systems #1947-MS, Minneapolis, Minn.). This protein includes the Sema and PSI domains of human RON (Glu 25-Leu 571; see SEQ ID NO:784) coupled to a carboxyl-terminal histidine tag and expressed in the NS0 mouse myeloma cell line. Plates were blocked with 10% FBS in DPBS prior to adding hybridoma supernatants diluted […] in serum diluent. Murine antibodies bound to recombinant RON Sema-PSI were detected as described above.
(§4) “Diluent only” samples represent background binding in each assay when only serum diluent was run as the sample. As a positive control for IgG measurement and recombinant RON Sema-PSI binding, 250 ng/ml of an anti-human RON antibody (R&D Systems #MAB691, Minneapolis, Minn.) was tested in both ELISAs.

[4] = biological target: T3, recombinant RON Sema-PSI protein (R&D …); experiment: ELISA, plate coated with 1 µg/ml recombinant RON Sema-PSI
Experimental: as §3, §4

RON Sema-PSI-AFH protein [5] = biological target: T1, RON Sema-PSI-AFH protein; experiment: SPR (Biacore T100); Interceptor captured by immobilized anti-human Fc, soluble RON Sema-PSI-AFH flowed over
Experimental: as §1, §2

B1: RON-f01 murine antibody (4C04 hybridoma) (antibody, V domains shown)
VH: QIQLQQSGPELVKPGTSVKISCKASDYTLTDFYMNWVRQKPGQGLEWIGRIYPGTDKTRYNEKFRDKAILTVDTSSSTAYMQLSSLTSEDTAVYFCARSAYYGNYVAMDYWGQGTSVTVSL
VL: DIQMTQSPASQSASLGESVTITCLASQTIGTWLAWYQQKPGKSPQLLIYAATSLADGVPSRFSASGSGTKFSFKIDSLQSEDFVSYYCQQLYNTPWTFGGGTKLEIK
notes: Murine monoclonal antibody from a hybridoma; also called RON-f01 Antibody
RON Sema-PSI-AFH protein [1]
  Kd: 0.15 nM
  koff: 9.49e-05 s⁻¹
  kon: 632000 M⁻¹ s⁻¹
[2]
  binding result: binds
[3]
  binding result: binds

B2: RON-e01 murine antibody (11H09 hybridoma) (antibody, V domains shown)
VH: QVQLQQSGAELAKPGASVKMSCKSSGYTFTSYWIHWVKERPGQGLEWIGYIYPTTGYTESNQKFKDKATLTADKSSSTAYMQLSSLTSEDSAVYYCFLLRPWYFDVWGAGTTVTVSS
VL: DIQMTQSPSSLSASLGERVSLTCRASQDIGSSLSWLQQEPDGTIKRLIYSTSSLDSGVPKRFSGSRSGSDYSLTISSLESEDFVDYYCLQYASSPWTFGGGTKLEIK
notes: Murine monoclonal antibody from a hybridoma, used as supernatant or purified; also called RON-e01 Antibody
[2]
  binding result: binds
[4]
  binding result: no binding

B3: RON-f03 Interceptor (4C04 scFv, Interceptor Pair 2) (other)
chain 1: DIQMTQSPASQSASLGESVTITCLASQTIGTWLAWYQQKPGKSPQLLIYAATSLADGVPSRFSASGSGTKFSFKIDSLQSEDFVSYYCQQLYNTPWTFGGGTKLEIKGGGGSGGGGSGGGGSQIQLQQSGPELVKPGTSVKISCKASDYTLTDFYMNWVRQKPGQGLEWIGRIYPGTDKTRYNEKFRDKAILTVDTSSSTAYMQLSSLTSEDTAVYFCARSAYYGNYVAMDYWGQGTSVTVSSSASTKGPSVFPLAPSSKSTSGGTAALGCLVKDYFPEPVTVSWNSGALTSGVHTFPAVLQSSGLYSLSSVVTVPSSSLGTQTYICNVNHKPSNTKVDKKVRTEPKSSDKTHTCPPCPSGAPELLGGPSVFLFPPKPKDTLMISRTPEVTCVVVDVSHEDPEVKFNWYVDGVEVHNAKTKPREEQYNSTYRVVSVLTVLHQDWLNGKEYKCKVSNKALPAPIEKTISKAKGQPREPQVYTLPPSRDELTKNQVSLTCLVKGFYPSDIAVEWESNGQPENNYKTTPPVLDSDGSFFLYSKLTVDKSRWQQGNVFSCSVMHEALHNHYTQKSLSLSPGKSRTVAAPSVFIFPPSDEQLKSGTASVVCLLNNFYPREAKVQWKVDNALQSGNSQESVTEQDSKDSTYSLSSTLTLSKADYEKHKVYACEVTHQGLSSPVTKSFNRGE
chain 2: TVAAPSVFIFPPSDEQLKSGTASVVCLLNNFYPREAKVQWKVDNALQSGNSQESVTEQDSKDSTYSLSSTLTLSKADYEKHKVYACEVTHQGLSSPVTKSFNRGERTEPKSSDKTHTCPPCPSGAPELLGGPSVFLFPPKPKDTLMISRTPEVTCVVVDVSHEDPEVKFNWYVDGVEVHNAKTKPREEQYNSTYRVVSVLTVLHQDWLNGKEYKCKVSNKALPAPIEKTISKAKGQPREPQVYTLPPSRDELTKNQVSLTCLVKGFYPSDIAVEWESNGQPENNYKTTPPVLDSDGSFFLYSKLTVDKSRWQQGNVFSCSVMHEALHNHYTQKSLSLSPGKSRASTKGPSVFPLAPSSKSTSGGTAALGCLVKDYFPEPVTVSWNSGALTSGVHTFPAVLQSSGLYSLSSVVTVPSSSLGTQTYICNVNHKPSNTKVDKKV
notes: also called RON-f03 2nd generation interceptor
RON Sema-PSI-AFH protein [5]
  Kd: 0.156 nM
  koff: 6.78e-05 s⁻¹
  kon: 434000 M⁻¹ s⁻¹

Reference: patent US20130089554A1 (EMERGENT PRODUCT DEVELOPMENT SEATTLE, published 2013)
